# Measured values reported in patent US20190203174A1.
# Tests used:
# [1] = molecular target: PE-labeled DR1 tetramers loaded with FVIII-2191-2220 (human) (UniProt P01903); assay: flow cytometry, DR1 tetramer staining of transduced CD4 T cells
# [2] = molecular target: PE-labeled DR1 tetramers loaded with FVIII-2191-2220 (human) (UniProt P01903); assay: flow cytometry, DR1 tetramer staining of transduced naïve CD4 T cells
# [3] = molecular target: PE-labeled DR1 tetramers loaded with FVIII-2191-2220 (human) (UniProt P01903); assay: flow cytometry, PE-labeled DR1 tetramer staining of peptide-expanded transduced T effectors
# [4] = molecular target: FVIII-2191-2220 presented on HLA-DR1 by irradiated DR1-PBMCs (human); assay: cell-based or functional assay
binder,measurement,setting,value
FVIII C2-specific human T cell receptor (TCR17195) (TCR) RQVARVIVFLTLSTLSLAKTTQPISMDSYEGQEVNITCSHNNIATNDYITWYQQFPSQGPRFIIQGYKTKVTNEVASLFIPADRKSSTLSLPRVSLSDTAVYYCLVGDAPNSGNTPLVFGKGTRLSVIANIQNPDPAVYQLRDSKSSDKSVCLFTDFDSQTNVSQSKDSDVYITDKTVLDMRSMDFKSNSAVAWSNKSDFACANAFNNSIIPEDTFFPSPESSCDVKLVEKSFETDTNLNFQNLSVIGFRILLLKVAGFNLLMTLRLWSSRAKRGSGATNFSLLKQAGDVEENPGPMLLLLLLLGPGSGLGAVVSQHPSRVICKSGTSVKIECRSLDFQATTMFWYRQFPKKSLMLMATSNEGSKATYEQGVEKDKFLINHASLTLSTLTVTSAQPEDSSFYICSAHTRANYGYTFGSGTRLTVVEDLNKVFPPEVAVFEPSEAEISHTQKATLVCLATGFFPDHVELSWWVNGKEVHSGVSTDPQPLKEQPALNDSRYCLSSRLRVSATFWQNPRNHFRCQVQFYGLSENDEWTQDRAKPVTQIVSAEAWGRADCGFTSVSYQQGVLSATILYEILLGKATLYAVLVSALVLMAMVKRKDF,fold tetramer staining intensity over non-specific tetramer staining,[1],> 10 fold
same,percent tetramer+ of the total CD4 population,[2],0.2%
same,percent tetramer+ of the transduced cells,[2],< 5%
same,percent tetramer+,[3],24%
same,expansion of GFP cells against culture with pOVA,[4],50 fold
same,"proliferation of GFP cells (dye dilution, 4 days)",[4],100%
same,proportion of GFP cells after culture with FVIII-2191-2220,[4],61 to 81%
